First the molecules themselves.
B1: Mitogen-activated protein kinase kinase kinase 2 (Mus musculus), Q61083 (parent)
chain: MDDQQALNSIMQDLAVLHKASRPALSLQETRKAKPSSPKKQNDVRVKFEHRGEKRILQVTRPVKLEDLRSKSKIAFGQSMDLHYTNNELVIPLTTQDDLDKAVELLDRSIHMKSLKILLVVNGSTQATNLEPSPSPEDLNNTPLGAERKKRLSVVGPPNRDRSSPPPGYIPDILHQIARNGSFTSINSEGEFIPESMDQMLDPLSLSSPENSGSGSCPSLDSPLDGESYPKSRMPRAQSYPDNHQEFTDYDNPIFEKFGKGGTYPRRYHVSYHHQEYNDGRKTFPRARRTQGTSFRSPVSFSPTDHSLSTSSGSSVFTPEYDDSRIRRRGSDIDNPTLTVTDISPPSRSPRAPTNWRLGKLLGQGAFGRVYLCYDVDTGRELAVKQVQFNPESPETSKEVNALECEIQLLKNLLHERIVQYYGCLRDPQEKTLSIFMELSPGGSIKDQLKAYGALTENVTRKYTRQILEGVHYLHSNMIVHRDIKGANILRDSTGNIKLGDFGASKRLQTICLSGTGMKSVTGTPYWMSPEVISGEGYGRKADIWSVACTVVEMLTEKPPWAEFEAMAAIFKIATQPTNPKLPPHVSDYTRDFLKRIFVEAKLRPSAEELLRHMFVHYH
partner: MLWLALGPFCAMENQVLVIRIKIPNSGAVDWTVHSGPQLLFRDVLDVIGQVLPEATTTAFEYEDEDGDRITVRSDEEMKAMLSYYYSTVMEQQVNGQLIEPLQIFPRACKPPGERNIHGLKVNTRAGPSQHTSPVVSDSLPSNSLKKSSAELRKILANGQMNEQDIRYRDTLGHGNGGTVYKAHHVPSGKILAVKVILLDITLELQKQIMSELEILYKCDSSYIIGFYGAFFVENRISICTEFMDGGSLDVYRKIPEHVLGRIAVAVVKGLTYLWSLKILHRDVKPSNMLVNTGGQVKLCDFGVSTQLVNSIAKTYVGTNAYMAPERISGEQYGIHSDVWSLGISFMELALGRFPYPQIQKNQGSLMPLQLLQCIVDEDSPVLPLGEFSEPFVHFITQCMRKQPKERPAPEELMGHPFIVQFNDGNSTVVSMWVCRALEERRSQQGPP

The variants in the assay derive from B1. The conditions noted are these: with mp2k5_mouse Map2k5, Q9WVS7.
Turning to K47A, the “effect of a mutation on the interaction” value was “decreasing interaction”.

Source of the values: IntAct's records for PubMed 12912994.
